According to US7732178B2, “Laccase enzymes and their uses” (AB Enzymes Oy, priority 2004, dated 2010):
Entries after “also recorded” stand apart in the source; their conditions may differ.

B1: CtLcc1: Chaetomium thermophilum ALKO 4265 laccase, SEQ ID NO: 47, produced in Trichoderma reesei (protein)
chain: MKFLTYATALLGALTAVVGAIPTRSGTKKKYIRDGPGPCHTPSNRACWAPGFDINTDYEVNTPNTGVTRNYTLTLTEEDNWTGPDGVVKEKIMLVNGKTLGPTIEANWGDWIEVKVINNLLTNGTSIHWHGIHQKGSNLHDGANGVTECPIPPNGGQRTYRFRAQQYGTSWYHSHFSAQYGNGIVGPIVIHGPASLPYDIDLGPFPLTDYYYKSADELVRHTQNNGPPFSDNVLFNGTGVHPQTGHGQYAKVTLTPGKRHRLRIINMSTENHFQVSLVGHQFTVIAADMVPVHSYTTDSLFLAVGQRYDVTIDASQTPGNYWFNVTFGGGFACGGSFNPNPAAIFHYEGAPDALPTDPGVPPRDHNCLDTLDLVPVVPRNVQVNQFVKKPENTLPVELSLGGTPLFVWKVNGSAIDVDWGNPVLQYVMDRNTSYRQADNIVEVNGVNQWTYWLIENDPNGAFSLPHPMHLHGHDFLIVGRSPDVPPGSNQRYNFDPATDIYRLRGQNPTRRDVAMLPAGGWLLLAFLTDNPGAWLFHCHIAWHVSGGLSVDFLERPNDLRNSILQHDKDEFNRVCNEWRTYWPNSPHPKIDSGLKHRWVEESEWLVR
modifications: Chaetomium thermophilum ALKO4265; (1)..(607) Deduced amino acid sequence of Chaetomium thermophilum ALKO4265 CtLcc1
B2: TaLcc2: Thielavia arenaria ALKO 4197 laccase, SEQ ID NO: 41, produced in Trichoderma reesei (protein)
chain: MLTETLKSRNMLQSILALLATALGSSAFAIPELPEVSLQPRQACENTATSRQCWGDLSIDTNYYEVLPSTGRPPQEYWLSVVEGPCAPDGYNRTCMTFNGTVPGPTLFADWGDELVIHVTNNMVNNGTAIHWHGIRMLNNTLNDGVPGVTQCAIAPGESMTYRFNVTQYGSTWYHSHFSLQYAEGLFGGMILRGPSTANWDEDLGVLFLQDWSHVEAFTRWHEAKAGFPPSLDGGLINGTNTFDCSTLSPTDPKCTGNGKKFETVFEPGKKYLIRLINVAIDGVFQFSIDGHSLTVIATDLVPIVPYTTDSVQITIGQRYDIIVEANATPGNYWMRADWVTACVTNDHPEHMTGIVRYDASSIDPPTSESNVTKTSSCLGEPNEKTIPHLSLDVTNIGGTNVEELSFDTTSGDYFQWTLNTSSLVLDWGNPTMARIFNGDAIFPTEYNVVAVNKTGTGPEWTVLVIQDQSNLPIAHPIHLHGHDFWVLAAEEGVFNGNISSFNTRNPARRDVATLPGRGYLAIAFQIDNPGTWLTHCHIAWHASQGLSLEFVESQSEIVTDEVSRGVFNDVCASWRAHDPLWEQEDSGI
modifications: Thielavia arenaria ALKO4197; (1)..(589) Deduced amino acid sequence of Thielavia arenaria ALKO4197 TaLacc2

Columns and labels:
[1] = Specific activity towards ABTS; type: biochemical; conditions: 25 mM succinate buffer pH 4.5, 25° C.
Description: The activity assay was carried out in accordance with the method developed by Niku-Paavola et al. (1988). The sample was diluted with 0.025 M succinate buffer, pH 4.5. […] The activity is expressed as nano katals.
(§1) Specific activities of the purified T. arenaria and C. thermophilum laccases were determined towards different laccase substrates.

[2] = Denim bleaching at different pH values; set-up: key to After laccase treatment L* / After laccase treatment b* / Increase of L*: CIE L*a*b* colour coordinates (illuminant D65), Minolta reflectance; conditions: for After laccase treatment L* / After laccase treatment b* / Increase of L*: face side of denim, 30 min, 50° C.; for decolorization of indigo dye of denim compared to DeniLite II Base: pH values 6 and 7, with mediator
Description: Lee Cooper jeans (MASI Company Oy, Finland) that were desized and treated with neutral ECOSTONE® cellulase were used as test material. Laccase treatments were performed in LP-2 Launder Ometer as follows. About 10 g of denim swatches (15×14 cm) were loaded into 1.2 liter containers containing 200 ml Mc Ilvaine's citrate phosphate buffer pH 5, 6 or 7 and the containers were temperated. Enzyme with or without the mediator (methyl syringate, DeniLite II Assist, Novozymes) was added as laccase activity units. Enzyme was dosed 200 nkat/g and the mediator 10 mg/g on the weight of fabric. […] The Launder Ometer was run at 50° C. for 30 min and after that the temperature in Launder was raised to 80° C. for 10 min. The swatches were carefully rinsed with warm water, dried half-dry in a tumbler and after that air dried.
The bleaching effect was evaluated by measuring the colour as reflectance values with the Minolta Chromameter CM 1000 (Minolta Co.) using L*a*b* color space coordinates (illuminant D65). The colour from both sides of the swatches was measured before and after the laccase treatment. Each measurement was the average of several measurements.

Decolorization of dyes [3] = assay: Decolorization of dyes; set-up: key to Decolorization of Indigocarmine, Time 30 min / Decolorization of Indigocarmine, Time 60 min: −: no visually detectable change; +: visually detectable fading of the colour; ++: considerable fading of the colour; +++: complete/almost complete decolorization; conditions: for Decolorization of Indigocarmine, Time 30 min / Decolorization of Indigocarmine, Time 60 min: dye 5 mg/50 ml, enzyme 100 nkat/50 ml, 50° C., pH 6; for decolorization of Indigocarmine: in the presence of the mediator
Description: (§2) The recombinant laccases CtLcc1, TaLcc2 and TaLcc4, derived from Trichoderma strains (Example 7) were tested for their ability to decolorize different dyes in the presence of the methyl syringate mediator (Example 7) or without it. The experiments were carried out in 100 ml shake flasks containing 50 ml of dye dissolved in citrate phosphate buffer pH 6. Dye concentration 5 mg/50 ml was used. Enzyme was dosed 100 nkat per 50 ml and the mediator 5 mg per 50 ml. Control samples contained only dye solution. The shake flasks were incubated at 50° C. for 30, 60 and 120 minutes. Samples of 3.5 ml were taken in test tubes for visual evaluation.

[4] = Specific activity towards syringaldazine; type: biochemical; conditions: 25 mM MES buffer, pH 5.5
Description: as §1

Decolorization of dyes [5] = assay: Decolorization of dyes; set-up: key to Decolorization of Remazol Brilliant blue, Time 30 min / Decolorization of Remazol Brilliant blue, Time 60 min: −: no visually detectable change; +: visually detectable fading of the colour; ++: considerable fading of the colour; +++: complete/almost complete decolorization; conditions: for Decolorization of Remazol Brilliant blue, Time 30 min / Decolorization of Remazol Brilliant blue, Time 60 min: dye 5 mg/50 ml, enzyme 100 nkat/50 ml, 50° C., pH 6; for decolorization of Remazol Brilliant Blue: in the presence of the mediator
Description: as §2

[6] = Isoelectric focusing (pI); type: physicochemical; conditions: pH range 3-9
How it was run: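 Purified Thielavia arenaria and Chaetomium thermophilum laccases resolved by isoelectric focusing over pH 3-9. pI read from focused band position.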

[7] = pH 5, enzyme 200 nkat/g without the mediator, or mediator 10 mg/g alone
[8] = pH 5, enzyme 200 nkat/g, mediator 10 mg/g
[9] = pH 6, enzyme 200 nkat/g without the mediator, or mediator 10 mg/g alone
[10] = pH 6, enzyme 200 nkat/g, mediator 10 mg/g
[11] = pH 7, enzyme 200 nkat/g without the mediator, or mediator 10 mg/g alone
[12] = pH 7, enzyme 200 nkat/g, mediator 10 mg/g

| Molecule | Specific activity on ABTS [1] [nkat/mg] | After laccase treatment L* [2, 7] | After laccase treatment b* [2, 7] | Increase of L* [2, 7] | After laccase treatment L* [2, 8] | After laccase treatment b* [2, 8] | Increase of L* [2, 8] | After laccase treatment L* [2, 9] | After laccase treatment b* [2, 9] | Increase of L* [2, 9] | After laccase treatment L* [2, 10] | After laccase treatment b* [2, 10] | Increase of L* [2, 10] | After laccase treatment L* [2, 11] | After laccase treatment b* [2, 11] | Increase of L* [2, 11] | After laccase treatment L* [2, 12] | After laccase treatment b* [2, 12] | Increase of L* [2, 12] | decolorization of indigo dye of denim compared to DeniLite II Base [2] | also measured |
| --- | --- | --- | --- | --- | --- | --- | --- | --- | --- | --- | --- | --- | --- | --- | --- | --- | --- | --- | --- | --- | --- |
| B1 | 705 | 28.88 | −18.65 | 0.46 | 35.07 | −18.38 | 5.91 | 28.83 | −18.53 | −0.13 | 40.08 | −17.18 | 11.19 | 29.32 | −18.52 | 0.73 | 36.69 | −17.88 | 8.31 | more efficient | Decolorization of Indigocarmine, Time 30 min (Decolorization of dyes [3]; mediator 0 mg/50 ml): −; Decolorization of Indigocarmine, Time 60 min (Decolorization of dyes [3]; mediator 0 mg/50 ml): −; Decolorization of Indigocarmine, Time 30 min (Decolorization of dyes [3]; mediator 5 mg/50 ml): +++; Decolorization of Indigocarmine, Time 60 min (Decolorization of dyes [3]; mediator 5 mg/50 ml): +++; decolorization of Indigocarmine (Decolorization of dyes [3]): very effectively; also recorded: to great extend or completely; Specific activity on syringaldazin [4]: 400 nkat/mg; Decolorization of Remazol Brilliant blue, Time 30 min (Decolorization of dyes [5]; mediator 0 mg/50 ml): −; Decolorization of Remazol Brilliant blue, Time 60 min (Decolorization of dyes [5]; mediator 0 mg/50 ml): −; Decolorization of Remazol Brilliant blue, Time 30 min (Decolorization of dyes [5]; mediator 5 mg/50 ml): ++; Decolorization of Remazol Brilliant blue, Time 60 min (Decolorization of dyes [5]; mediator 5 mg/50 ml): +++; decolorization of Remazol Brilliant Blue (Decolorization of dyes [5]): very effectively; also recorded: to great extend or completely; pI [6]: 4.0-4.3 |
| B2 | 360 | 30.11 | −18.63 | −0.02 | 33.68 | −17.91 | 5.39 | 29.17 | −18.51 | 0.30 | 39.01 | −17.46 | 10.57 | 28.24 | −18.30 | 0.77 | 35.85 | −18.27 | 7.26 | more efficient | Decolorization of Indigocarmine, Time 30 min (Decolorization of dyes [3]; Table 24, mediator 0 mg/50 ml): −; Decolorization of Indigocarmine, Time 60 min (Decolorization of dyes [3]; Table 24, mediator 0 mg/50 ml): −; Decolorization of Indigocarmine, Time 30 min (Decolorization of dyes [3]; Table 24, mediator 5 mg/50 ml): +++; Decolorization of Indigocarmine, Time 60 min (Decolorization of dyes [3]; Table 24, mediator 5 mg/50 ml): +++; decolorization of Indigocarmine (Decolorization of dyes [3]): very effectively; also recorded: to great extend or completely; Specific activity on syringaldazin [4]: 120 nkat/mg; Decolorization of Remazol Brilliant blue, Time 30 min (Decolorization of dyes [5]; Table 24, mediator 0 mg/50 ml): −; Decolorization of Remazol Brilliant blue, Time 60 min (Decolorization of dyes [5]; Table 24, mediator 0 mg/50 ml): −; Decolorization of Remazol Brilliant blue, Time 30 min (Decolorization of dyes [5]; Table 24, mediator 5 mg/50 ml): ++; Decolorization of Remazol Brilliant blue, Time 60 min (Decolorization of dyes [5]; Table 24, mediator 5 mg/50 ml): +++; decolorization of Remazol Brilliant Blue (Decolorization of dyes [5]): very effectively; also recorded: to great extend or completely; pI [6]: 3.5 |
